Target: labeled control protein (BSA) (UniProt P02769 25-607)
Assay: membrane-immobilized flagellin bait, biotinylated prey, streptavidin-HRP

labeled control protein (BSA), sequence (P02769 25-607 limits assumed): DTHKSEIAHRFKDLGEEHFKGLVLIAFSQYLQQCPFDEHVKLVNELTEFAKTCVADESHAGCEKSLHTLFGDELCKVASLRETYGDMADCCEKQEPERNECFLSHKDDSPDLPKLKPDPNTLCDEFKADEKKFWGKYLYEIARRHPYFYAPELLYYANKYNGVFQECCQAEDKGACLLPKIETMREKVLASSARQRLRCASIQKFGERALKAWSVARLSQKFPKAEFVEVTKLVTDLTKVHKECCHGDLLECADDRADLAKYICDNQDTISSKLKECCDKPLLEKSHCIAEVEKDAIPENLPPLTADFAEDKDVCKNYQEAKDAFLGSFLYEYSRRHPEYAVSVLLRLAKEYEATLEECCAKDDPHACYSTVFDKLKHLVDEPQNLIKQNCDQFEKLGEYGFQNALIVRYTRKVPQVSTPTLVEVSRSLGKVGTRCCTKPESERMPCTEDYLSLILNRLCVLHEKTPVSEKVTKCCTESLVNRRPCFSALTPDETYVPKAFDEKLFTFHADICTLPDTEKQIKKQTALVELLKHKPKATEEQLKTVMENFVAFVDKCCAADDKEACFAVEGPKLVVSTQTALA

B1: flagellin FliC, serotype H48, of E. coli K-12 (MG1655) (other)
chain: AQVINTNSLSLITQNNINKNQSALSSSIERLSSGLRINSAKDDAAGQAIANRFTSNIKGLTQAARNANDGISVAQTTEGALSEINNNLQRVRELTVQATTGTNSESDLSSIQDEIKSRLDEIDRVSGQTQFNGVNVLAKNGSMKIQVGANDNQTITIDLKQIDAKTLGLDGFSVKNNDTVTTSAPVTAFGATTTNNIKLTGITLSTEAATDTGGTNPASIEGVYTDNGNDYYAKITGGDNDGKYYAVTVANDGTVTMATGATANATVTDANTTKATTITSGGTPVQIDNTAGSATANLGAVSLVKLQDSKGNDTDTYALKDTNGNLYAADVNETTGAVSVKTITYTDSSGAASSPTAVKLGGDDGKTEVVDIDGKTYDSADLNGGNLQTGLTAGGEALTAVANGKTTDPLKALDDAIASVDKFRSSLGAVQNRLDSAVTNLNNTTTNLSEAQSRIQDADYATEVSNMSKAQIIQQAGNSVLAKANQVPQQVLSLLQG
notes: also called FliCH48; FliC (H48)
Question: Does B1 bind?
Answer: no binding (tested: 10 µg/ml)

From patent publication US20110206694A1 (UNIVERSITY OF TENNESSEE RESEARCH FOUNDATION, published 2011)
